Measurements reported in patent US20260209320A1 (ALCHEMAB THERAPEUTICS, published 2026).

B1: ATL_0005335 (antibody, V domains shown)
VH: EVQLVESGGGLVKPGGSLRLSCAASGFTFNKAWMNWVRQAPGKGLEWVGRIKSGIDGGTTDYAAPVQGRFTISRDDSKNTVYLQMNSLNTEDTAVYYCIPPPYYYYYGLDVWGQGTTVTVSS
VL: QSALTQPASVSGSPGQSITISCTGTSSDIGSYNLVSWYQQHPGNAPKPLIYEGSKRPSGVSARFSGSKSGNTASLTISGLQPEDEADYYCSSYAGFNTLVFGGGTKVTVL
notes: human IgG1; also called ATL_5335
B2: ATL_0005331 (antibody, V domains shown)
VH: B1 VH
VL: QSALTQPRSVSGSPGQSITISCTGTSSDVGSYNLVSWFQQHPGKAPKLIIYEVNKRPSGVPDRFSGSKSGNTASLTVSGLQAEDEADYYCGSYAGTNNVFGTGTKLTVL
notes: human IgG1; also called ATL_5331; Human IgG1 ATL_0005331

How the values were obtained:
Epitope 1 [1] = target: T1, Epitope 1 (human, cyno); experiment: peptide microarray; Sp C1; IgG 1 µg/ml
T1 peptide: QQQQPPPPPPPPPPP

Peptide 4 [2] = target: T2, Peptide 4 (human, cyno); experiment: peptide microarray; Sp C1; IgG 1 µg/ml
T2 peptide: QQQQQPPPPPPPPPP

Peptide 3 [3] = target: T3, Peptide 3 (human, cyno); experiment: peptide microarray; Sp C1; IgG 1 µg/ml
T3 peptide: QQQQQQPPPPPPPPP

Peptide 2 [4] = target: T4, Peptide 2 (human, cyno); experiment: peptide microarray; Sp C1; IgG 1 µg/ml
T4 peptide: QQQQQQQPPPPPPPP

Peptide 18 [5] = target: T5, Peptide 18 (cyno); experiment: peptide microarray; Sp C1; IgG 1 µg/ml
T5 peptide: QQQPPPPPPPPPPPP

Peptide 1 [6] = target: T6, Peptide 1 (human, cyno); experiment: peptide microarray; Sp C1; IgG 1 µg/ml
T6 peptide: QQQQQQQQPPPPPPP

Peptide 22 = target: T7, Peptide 22 (cyno); experiment: peptide microarray; Sp C1; IgG 1 µg/ml
T7 peptide: QPMLPQPQPPPPPPR

Peptide 21 [7] = target: T8, Peptide 21 (cyno); experiment: peptide microarray; Sp C1; IgG 1 µg/ml
T8 peptide: AQPMLPQPQPPPPPP

Peptide 40 = target: T9, Peptide 40 (mouse); experiment: peptide microarray; Sp M; IgG 10 µg/ml
T9 peptide: QAPPPPPPPPPPQPP

Peptide 42 = target: T10, Peptide 42 (mouse); experiment: peptide microarray; Sp M; IgG 10 µg/ml
T10 peptide: PQPPPQGQPPPPPPP

Peptide 34 = target: T11, Peptide 34 (mouse); experiment: peptide microarray; Sp M; IgG 10 µg/ml
T11 peptide: QQQPPPQAPPPPPPP

Peptide 43 = target: T12, Peptide 43 (mouse); experiment: peptide microarray; Sp M; IgG 10 µg/ml
T12 peptide: QPPPQGQPPPPPPPL

Peptide 32 = target: T13, Peptide 32 (mouse); experiment: peptide microarray; Sp M; IgG 10 µg/ml
T13 peptide: QQQQQPPPQAPPPPP

Peptide 33 = target: T14, Peptide 33 (mouse); experiment: peptide microarray; Sp M; IgG 10 µg/ml
T14 peptide: QQQQPPPQAPPPPPP

Peptide 38 = target: T15, Peptide 38 (mouse); experiment: peptide microarray; Sp M; IgG 10 µg/ml
T15 peptide: PPQAPPPPPPPPPPQ

Peptide 44 = target: T16, Peptide 44 (mouse); experiment: peptide microarray; Sp M; IgG 10 µg/ml
T16 peptide: PPPQGQPPPPPPPLP

Peptide 37 = target: T17, Peptide 37 (mouse); experiment: peptide microarray; Sp M; IgG 10 µg/ml
T17 peptide: PPPQAPPPPPPPPPP

Peptide 35 = target: T18, Peptide 35 (mouse); experiment: peptide microarray; Sp M; IgG 10 µg/ml
T18 peptide: QQPPPQAPPPPPPPP

Peptide 36 = target: T19, Peptide 36 (mouse); experiment: peptide microarray; Sp M; IgG 10 µg/ml
T19 peptide: QPPPQAPPPPPPPPP

Peptide 39 = target: T20, Peptide 39 (mouse); experiment: peptide microarray; Sp M; IgG 10 µg/ml
T20 peptide: PQAPPPPPPPPPPQP

Peptide 30 = target: T21, Peptide 30 (cyno); experiment: peptide microarray; Sp C2; IgG 1 µg/ml
T21 peptide: MLPQPQPPPPPPPPP

Peptide 25 = target: T22, Peptide 25 (cyno); experiment: peptide microarray; Sp C2; IgG 1 µg/ml
T22 peptide: QQPPPPPPPPPPPPQ

Epitope 1 [8] = target: T1, Epitope 1; experiment: peptide microarray; Sp C2; IgG 1 µg/ml
Peptide 29 = target: T23, Peptide 29 (cyno); experiment: peptide microarray; Sp C2; IgG 1 µg/ml
T23 peptide: PMLPQPQPPPPPPPP

Peptide 4 [9] = target: T2, Peptide 4; experiment: peptide microarray; Sp C2; IgG 1 µg/ml
Peptide 3 [10] = target: T3, Peptide 3; experiment: peptide microarray; Sp C2; IgG 1 µg/ml
Peptide 2 [11] = target: T4, Peptide 2; experiment: peptide microarray; Sp C2; IgG 1 µg/ml
Peptide 24 = target: T24, Peptide 24 (cyno); experiment: peptide microarray; Sp C2; IgG 1 µg/ml
T24 peptide: QQQQQQQQQPPPPPP

Peptide 18 [12] = target: T5, Peptide 18; experiment: peptide microarray; Sp C2; IgG 1 µg/ml
Peptide 1 [13] = target: T6, Peptide 1; experiment: peptide microarray; Sp C2; IgG 1 µg/ml
Peptide 26 = target: T25, Peptide 26 (cyno); experiment: peptide microarray; Sp C2; IgG 1 µg/ml
T25 construct: the array is said to hold 15-mers
T25 peptide: QPPPPPPPPPPPPQL

Peptide 21 [14] = target: T8, Peptide 21; experiment: peptide microarray; Sp C2; IgG 1 µg/ml
Peptide 31 = target: T26, Peptide 31 (cyno); experiment: peptide microarray; Sp C2; IgG 1 µg/ml
T26 peptide: LPQPQPPPPPPPPPP

Peptide 28 = target: T27, Peptide 28 (cyno); experiment: peptide microarray; Sp C2; IgG 1 µg/ml
T27 peptide: QPMLPQPQPPPPPPP

Epitope 1 [15] = target: T1, Epitope 1; experiment: peptide microarray; Sp C1; IgG 10 µg/ml
Peptide 4 [16] = target: T2, Peptide 4; experiment: peptide microarray; Sp C1; IgG 10 µg/ml
Peptide 3 [17] = target: T3, Peptide 3; experiment: peptide microarray; Sp C1; IgG 10 µg/ml
Peptide 2 [18] = target: T4, Peptide 2; experiment: peptide microarray; Sp C1; IgG 10 µg/ml
Peptide 1 [19] = target: T6, Peptide 1; experiment: peptide microarray; Sp C1; IgG 10 µg/ml
Peptide 21 [20] = target: T8, Peptide 21; experiment: peptide microarray; Sp C1; IgG 10 µg/ml

Row | Binder | corrected fluorescence intensity (Epitope 1 [1]) | corrected fluorescence intensity (Peptide 4 [2]) | corrected fluorescence intensity (Peptide 3 [3]) | corrected fluorescence intensity (Peptide 2 [4]) | corrected fluorescence intensity (Peptide 18 [5]) | corrected fluorescence intensity (Peptide 1 [6]) | corrected fluorescence intensity (Peptide 22) | corrected fluorescence intensity (Peptide 21 [7]) | corrected fluorescence intensity (Peptide 40) | corrected fluorescence intensity (Peptide 42) | corrected fluorescence intensity (Peptide 34) | corrected fluorescence intensity (Peptide 43) | corrected fluorescence intensity (Peptide 32) | corrected fluorescence intensity (Peptide 33) | corrected fluorescence intensity (Peptide 38) | corrected fluorescence intensity (Peptide 44) | corrected fluorescence intensity (Peptide 37) | corrected fluorescence intensity (Peptide 35) | corrected fluorescence intensity (Peptide 36) | corrected fluorescence intensity (Peptide 39) | further results
1 | B1 | 391 | 536 | 520 | 667 | 474 | 381 | 82 | 443 | 0 | 2280 | 5800 | 899 | 286 | 3090 | 3520 | 1250 | 7370 | 7820 | 8300 | 1880 | corrected fluorescence intensity (Peptide 30): 772; corrected fluorescence intensity (Peptide 25): 507; corrected fluorescence intensity (Epitope 1 [8]): 1400; corrected fluorescence intensity (Peptide 29): 523; corrected fluorescence intensity (Peptide 4 [9]): 1110; corrected fluorescence intensity (Peptide 3 [10]): 1220; corrected fluorescence intensity (Peptide 2 [11]): 1160; corrected fluorescence intensity (Peptide 24): 562; corrected fluorescence intensity (Peptide 18 [12]): 1270; corrected fluorescence intensity (Peptide 1 [13]): 990; corrected fluorescence intensity (Peptide 26): 128; corrected fluorescence intensity (Peptide 21 [14]): 168; corrected fluorescence intensity (Peptide 31): 1000; corrected fluorescence intensity (Peptide 28): 421; corrected fluorescence intensity (Epitope 1 [15]): 3340; corrected fluorescence intensity (Peptide 4 [16]): 4320; corrected fluorescence intensity (Peptide 3 [17]): 3540; corrected fluorescence intensity (Peptide 2 [18]): 2230; corrected fluorescence intensity (Peptide 1 [19]): 0; corrected fluorescence intensity (Peptide 21 [20]): 2740
2 | B2 | 195 | 136 | 206 | 118 | 137 | 0 | 91 | 182 | 234 | 884 | 1540 | 997 | 0 | 633 | 825 | 1740 | 3160 | 2410 | 2740 | 842 | corrected fluorescence intensity (Peptide 30): 256; corrected fluorescence intensity (Peptide 25): 206; corrected fluorescence intensity (Epitope 1 [8]): 379; corrected fluorescence intensity (Peptide 29): 156; corrected fluorescence intensity (Peptide 4 [9]): 546; corrected fluorescence intensity (Peptide 3 [10]): 548; corrected fluorescence intensity (Peptide 2 [11]): 462; corrected fluorescence intensity (Peptide 24): 146; corrected fluorescence intensity (Peptide 18 [12]): 474; corrected fluorescence intensity (Peptide 1 [13]): 259; corrected fluorescence intensity (Peptide 26): 141; corrected fluorescence intensity (Peptide 21 [14]): 154; corrected fluorescence intensity (Peptide 31): 294; corrected fluorescence intensity (Peptide 28): 152; corrected fluorescence intensity (Epitope 1 [15]): 4160; corrected fluorescence intensity (Peptide 4 [16]): 3150; corrected fluorescence intensity (Peptide 3 [17]): 2290; corrected fluorescence intensity (Peptide 2 [18]): 1760; corrected fluorescence intensity (Peptide 1 [19]): 378; corrected fluorescence intensity (Peptide 21 [20]): 1030
